Assay results from US20250163167A1 (SYNTHEKINE, published 2025).

What was measured:
mIL10Rb ECD antigen = biological target: T1, mIL10Rb ECD antigen (mouse, UniProt Q61190 20-220); test: periplasmic extract ELISA (PE-ELISA) of phage clones
T1 construct: Antigen of biopanning and PE-ELISA; also called extracellular domain of mIL10Rb
T1 sequence: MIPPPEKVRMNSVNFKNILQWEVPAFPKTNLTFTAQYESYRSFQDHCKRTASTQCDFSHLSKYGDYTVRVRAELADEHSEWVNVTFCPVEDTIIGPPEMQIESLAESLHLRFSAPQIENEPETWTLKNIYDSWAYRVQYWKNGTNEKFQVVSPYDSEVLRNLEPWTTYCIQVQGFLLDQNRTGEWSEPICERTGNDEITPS

[1] = biological target: T2, hIL10Rb-his (Sino Biological, Catalog#10945) (human, UniProt Q08334 20-220); test: SPR Biacore T200; mono-Fc VHH captured on Protein A chip, hIL10Rb-his analyte; 1:1 Langmuir fit
T2 construct: Bought; also called Sino Biological cat#10945-H08H; not shown: C-terminal poly-His tag
T2 sequence: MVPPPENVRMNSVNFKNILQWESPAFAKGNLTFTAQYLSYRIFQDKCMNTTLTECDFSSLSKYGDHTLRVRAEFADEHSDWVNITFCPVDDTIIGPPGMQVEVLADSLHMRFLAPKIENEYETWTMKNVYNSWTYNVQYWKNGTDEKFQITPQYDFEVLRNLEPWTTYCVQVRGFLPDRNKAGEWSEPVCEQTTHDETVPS

[2] = biological target: T2, hIL10Rb-his (Sino Biological, …); test: SPR; ratio of experimental to calculated Rmax
[3] = biological target: T2, hIL10Rb-his (Sino Biological, …); test: SPR Biacore T200; mono-Fc VHH captured on Protein A chip, hIL10Rb-his analyte; 1:1 Langmuir fit (row flagged: inaccurate fit)
Text: To confirm and evaluate binding affinities of the binding of the hIL10Rb sdAbs, a representative example from each clonotype generated was selected for evaluation of binding via SPR. […] RMAX<100 RU indicates surface density compatible with kinetics analysis. Calculated Rmax values were generated using the equation: Rmax=Load (RU)×valency of ligand×(Molecular weight of analyte/Molecular weight of ligand). Surface activity was defined as the ratio of experimental/calculated Rmax.
One representative example from each clonotype of IL10a generated in accordance with Examples 1-3 was selected for evaluation of binding via SPR as follows. […] All experiments were conducted in 10 mM Hepes, 150 mM NaCl, 0.05% (v/v) Polysorbate 20 (PS20) and 3 mM EDTA (HBS-EP+ buffer) on a Biacore T200 instrument equipped with a Protein A derivatized sensor chip (Cytiva). Mono-Fc VHH ligands were flowed at 5 μl/min for variable time ranging from 18 to 300 seconds, reaching the capture loads listed in the tables below. Following ligand capture, injections of a 2-fold dilution series of the extracellular domain of the […] modified to incorporate a C-terminal poly-His sequence, typically comprising at least five concentrations between 1 μM and 1 nM, were performed in either high performance or single cycle kinetics mode. Surface regeneration was achieved by flowing 10 mM glycine-HCl, pH 1.5 (60 seconds, 50 μL/min).

[4] = biological target: T2, hIL10Rb-his (Sino Biological, …); test: SPR; ratio of experimental to calculated Rmax; remark: listed apart in the source
[5] = biological target: T3, hIL10Ra-his (Sino Biological, Catalog#10419) (human, UniProt Q13651 22-235); test: SPR Biacore T200; biotinylated dual VHH captured on CAP biotin chip, hIL10Ra-his analyte; 1:1 Langmuir fit
T3 construct: Bought; also called Sino Biological cat#10419-H08H; not shown: C-terminal poly-His tag
T3 sequence: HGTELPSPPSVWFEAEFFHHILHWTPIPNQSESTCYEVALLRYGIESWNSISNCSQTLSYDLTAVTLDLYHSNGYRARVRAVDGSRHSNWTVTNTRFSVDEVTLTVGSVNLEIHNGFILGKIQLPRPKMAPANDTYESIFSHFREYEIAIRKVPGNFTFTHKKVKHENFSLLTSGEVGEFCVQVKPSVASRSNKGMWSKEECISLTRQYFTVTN

[6] = biological target: T2, hIL10Rb-his (Sino Biological, …); test: SPR Biacore T200; biotinylated dual VHH captured on CAP biotin chip, hIL10Rb-his analyte; 1:1 Langmuir fit
[7] = biological target: T3, hIL10Ra-his (Sino Biological, …); test: SPR Biacore T200; biotinylated dual VHH captured on CAP biotin chip, hIL10Ra-his analyte; kon, koff and Rmax printed N/A

B1: DR1325 (anti mouse mIL10Rb VHH) (VHH)
VHH: QVQLQESGGGSVQAGGSLRLSCAASGYTYNRRFMGWFRQAPGKEREGLAIIYTPNSSTFYADSVTGRFTISQDSARNTVYLQMNSLKPEDTAMYYCAAARIASMTELSVRDMDYWGKGTQVTVSS
notes: Phage clone, periplasmic extract
binding result (mIL10Rb ECD antigen): binds

B2: hIL-10Rb_VHH12 Mono-Fc (Fc fusion)
chain: QVQLQESGGGSVQAGGSLRLSCAASGYTYSSYCMGWFRQAPGKEREGVAHIDSDGSTSYADSVKGRFTISKDNAKNTLYLQMNSLKPEDTAMYYCAADPIPGPGYCDGGPNKYWGQGTQVTVSS
notes: Mono-Fc VHH captured on Protein A; not shown: mono-Fc part
Kd [1]: 12.9 nM | koff [1]: 0.00143 s⁻¹ | kon [1]: 111000 M⁻¹ s⁻¹ | Surface Activity [2]: 67%

B3: hIL-10Rb_VHH16 Mono-Fc (Fc fusion)
chain: QVQLQESGGGSVEAGGSLRLSCAASGYTHSSYCMGWFRQAPGKEREGVAAIDVDGSTTYADSVKGRFTISKDNAKNTLYLQMNSLKPEDTGMYYCAAEFADCSSNYFLPPGAVRYWGQGTQVTVSS
notes: as for B2
Kd [3]: 7540 nM | koff [3]: 0.0221 s⁻¹ | kon [3]: 2930 M⁻¹ s⁻¹

B4: DR1326 (anti mouse mIL10Rb VHH) (VHH)
VHH: QVQLQESGGGSVQAGGSLRLSCTASRYIALNACMAWIRQAPGSEREVVATIVTDGSRTYYADSVKGRFTISQDNAKNTMYLQMNGLKPEDTAMYYCAADRRCPVSRAPYEYELRYWGQGTQVTVSS
notes: as for B1
binding result (mIL10Rb ECD antigen): binds

B5: hIL10Ra_VHH12-hIL10Rb_VHH27 biotin (bispecific antibody)
chain: QVQLQESGGGSVQAGGSLRLSCTVSGYTYSSNCMGWFRQAPGKEREGVATIYTGGGNTYYADSVKGRFTISQDNAKNTVYLQMNNLKPEDTAMYYCAAEPLSRVYGGSCPTPTFDYWGQGTQVTVSSGGGSQVQLQESGGGSVQTGGSLRLSCAASGYTYLRGCMGWFRQAPGKEREGVAVMDVVGDRRSYIDSVKGRFTISRDNAANSVYLQMDNLKPEDTAMYYCTAGPNCVGWRSGLDYWGQGTQVTVSS
modifications: conjugated to biotin (site not stated)
notes: also called IL10 VHH DR509 biotin; DR509
Activity [4]: 85% | Kd [5]: 0.2 nM | koff [5]: 0.00013 s⁻¹ | kon [5]: 490000 M⁻¹ s⁻¹ | Kd [6]: 1.9 nM | koff [6]: 0.003 s⁻¹ | kon [6]: 1.6e+06 M⁻¹ s⁻¹

B6: hIL-10Rb_VHH26 Mono-Fc (Fc fusion)
chain: QVQLQESGGGSVQAGGSLRLSCAASGYSYSSYCMGWFRQAPGKEREGVATIDSDGMTRYADSVKGRFTISKDNAKNTLYLQMNSLKPEDTAMYYCAAPLYDCDSGAVGRNPPYWGQGTQVTVSS
notes: as for B2
Kd [1]: 314 nM | koff [1]: 0.0213 s⁻¹ | kon [1]: 67800 M⁻¹ s⁻¹ | Surface Activity [2]: 54%

B7: hIL-10Rb_VHH15 Mono-Fc (Fc fusion)
chain: QVQLQESGGGSVQAGGSLRLSCTVSRYTASVNYMGWFRQAPGKEREGVATIFTGAGTTYYANSVKGRFTISRDNAKNTAYLQMNSLKPEDTAIYYCAVDFRGGLLYRPAYEYTYRGQGTQVTVSS
notes: as for B2
Kd [1]: 121 nM | koff [1]: 0.00866 s⁻¹ | kon [1]: 71800 M⁻¹ s⁻¹ | Surface Activity [2]: 18%

B8: hIL10Rb_VHH1-hIL10Ra_VHH9-biotin (bispecific antibody)
chain: QVQLQESGGGSVQAGGSLRLSCAASGYTYSSGCMGWFRQAPGKEREAVAAINSDGSTSYADSVKGRFTISKDNAKNTLYLQMNSLKPEDTAMYYCAAEPYCSGGYPRWSVAEFGYWGQGTQVTVSSGGGSQVQLQESGGGSVQAGGSLRLSCAVSGYAYSTYCMGWFRQAPGKEREGVAAIDSGGSTSYADSVKGRFTISKDNAKNTLYLRMNSLKPEDTAMYYCAAVPPPPDGGSCLFLGPEIKVSKADFRYWGQGTQVTVSS
modifications: conjugated to biotin (site not stated)
Activity [4]: 25% | Kd [5]: 1.1 nM | koff [5]: 0.00027 s⁻¹ | kon [5]: 250000 M⁻¹ s⁻¹ | Kd [6]: 2.7 nM | koff [6]: 0.0018 s⁻¹ | kon [6]: 660000 M⁻¹ s⁻¹

B9: hIL-10Rb_VHH3 Mono-Fc (Fc fusion)
chain: QVQLQESGGGSVQAGGSLRLSCAASRYTYNSYCMGWFRQAPGKEREGVATIDSDGMTRYADSVKGRFTISKDNAKNTLYLQMNSLKPEDTAMYYCAADADCTIAAMTTNPLGQGTQVTVSS
notes: as for B2
Kd [1]: 231 nM | koff [1]: 0.0214 s⁻¹ | kon [1]: 92900 M⁻¹ s⁻¹ | Surface Activity [2]: 52%

B10: hIL-10Rb_VHH1 Mono-Fc (Fc fusion)
chain: QVQLQESGGGSVQAGGSLRLSCAASGYTYSSGCMGWFRQAPGKEREAVAAINSDGSTSYADSVKGRFTISKDNAKNTLYLQMNSLKPEDTAMYYCAAEPYCSGGYPRWSVAEFGYWGQGTQVTVSS
notes: as for B2
Kd [1]: 8.3 nM | koff [1]: 0.00144 s⁻¹ | kon [1]: 175000 M⁻¹ s⁻¹ | Surface Activity [2]: 82%

B11: hIL10Rb_VHH12-hIL10Ra_VHH8 biotin (bispecific antibody)
chain: QVQLQESGGGSVQAGGSLRLSCAASGYTYSSYCMGWFRQAPGKEREGVAHIDSDGSTSYADSVKGRFTISKDNAKNTLYLQMNSLKPEDTAMYYCAADPIPGPGYCDGGPNKYWGQGTQVTVSSGGGSQVQLQESGGGSVQAGGSLRLSCAASGYTYSMYCMGWFRQAPGKEREGVAQINSDGSTSYADSVKGRFTISKDNAKNTLYLQMNSLKPEDTAMYYCAADSRVYGGSWYERLCGPYTYEYNYWGQGTQVTVSS
modifications: conjugated to biotin (site not stated)
Activity [4]: 42% | Kd [5]: 0.35 nM | koff [5]: 6.5e-05 s⁻¹ | kon [5]: 180000 M⁻¹ s⁻¹ | Kd [6]: 1.5 nM | koff [6]: 0.00068 s⁻¹ | kon [6]: 440000 M⁻¹ s⁻¹

B12: hIL10Ra_VHH17-hIL10Rb_VHH16 biotin (bispecific antibody)
chain: QVQLQESGGGSVQAGGSLRLSCAASGYSNCSYDMTWYRQAPGKEREFVSAIHSDGSTRYADSVKGRFFISQDNAKNTVYLQMNSLKPEDTAMYYCKTDPLHCRAHGGSWYSVRANYWGQGTQVTVSSGGGSQVQLQESGGGSVEAGGSLRLSCAASGYTHSSYCMGWFRQAPGKEREGVAAIDVDGSTTYADSVKGRFTISKDNAKNTLYLQMNSLKPEDTGMYYCAAEFADCSSNYFLPPGAVRYWGQGTQVTVSS
modifications: conjugated to biotin (site not stated)
Activity [4]: 34% | Kd [7]: < 5 nM | Kd [6]: 2.9 nM | koff [6]: 0.00045 s⁻¹ | kon [6]: 160000 M⁻¹ s⁻¹

B13: DR1324 (anti mouse mIL10Rb VHH) (VHH)
VHH: QVQLQESGGGSVQAGGSLRLSCATSGYASCSRAMRWYRQAPGKEREFVAYIDGVGSTGYADSVKGRFTISQDNAKYTAYLQMNSLKPEDTAMYYCNRGCRADGSNSLDNYWGQGTQVTVSS
notes: as for B1
binding result (mIL10Rb ECD antigen): binds

B14: hIL-10Rb_VHH27 Mono-Fc (Fc fusion)
chain: QVQLQESGGGSVQTGGSLRLSCAASGYTYLRGCMGWFRQAPGKEREGVAVMDVVGDRRSYIDSVKGRFTISRDNAANSVYLQMDNLKPEDTAMYYCTAGPNCVGWRSGLDYWGQGTQVTVSS
notes: as for B2
Kd [1]: 2.4 nM | koff [1]: 0.0254 s⁻¹ | kon [1]: 1.07e+07 M⁻¹ s⁻¹ | Surface Activity [2]: 24%

B15: DR1327 (anti mouse mIL10Rb VHH) (VHH)
VHH: QVQLQESGGGSVQAGGSLRLSCAASGYTYNGKCMAWFRQAPGKEREVVAGIYTGGSSTYYADSVKGRFTISQDNAKNTVYLQMDSLKPEDTAMYYCATSRSCSDLRRRSIAYWGQGTQVTVSS
notes: as for B1
binding result (mIL10Rb ECD antigen): binds
